According to patent US20200087400A1 (EUREKA THERAPEUTICS, published 2020):
Where a chain is given by its changes, count along the chain named.

B1: PSA146/HLA-A*02:01-specific scFv phage clone #17 (scFv, V domains shown)
VH: QMQLVQSGAEVKKPGESLKISCKGSGYSFTSYWIGWVRQMPGKGLEWMGIIYPGDSDTRYSPSFQGQVTISADKSISTAYLQWSSLKASDTAMYYCARLVVPDAFDIWGQGTMVTVSS
VL: QSVVTQPPSVSAAPGQKVTISCSGSSSNIGNNYVSWYQQLPGTAPKLLIYDNYKRPSGIPDRFSGSKSGTSATLGITGLQTGDEADYYCGTWDSSLSAGVFGGGTKLTVLG
B2: PSA146/HLA-A*02:01-specific scFv phage clone #15 (scFv, V domains shown)
VH: QVQLVQSGAEVKKPGSSVKVSCKASGGTFSSYAISWVRQAPGQGLEWMGRIIPILGIANYAQKFQGRVTITADKSTSTAYMELSSLRSEDTAVYYCARVSQPVYGSSTYDIWGQGTLVTVSS
VL: QAVLTQPPSASGTPGQRVTISCSGRSSNLGSNSVNWYQQVPGTAPKLLIFDNHQRPSGVPDRFSGSKSGTSASLAISGLRSEDETDYYCAAWDDSLNSVVFGGGTKLTVLG
B3: PSA146/HLA-A*02:01-specific scFv phage clone #13 (scFv, V domains shown)
VH: QVQLVQSGAEVKKPGASVKVSCKASGYTFTSYYMHWVRQAPGQGLEWMGGFDPEDGETIYAQKFQGRVTMTEDTSTDTAYMGLSSLRSEDTAVYYCARYSYDYWGQGTLVTVSS
VL: QAVVTQEPSLTVSPGGTVTLTCASSTGAVTSGYYPNWFQQKPGQAPRALIYSTSNKHSWTPARFSGSLLGGKAALTLSGVQPEDEAEYYCLLYYGGAYVFGTGTKVTVLG
B4: PSA146/HLA-A*02:01-specific scFv phage clone #14 (scFv, V domains shown)
VH: B3 VH with Q1E, S31G, Y33F, G82E, Y103L
VL: QTVVTQEPSLTVSPGGTVTLTCASSTGAVTSGYYPNWFQQKPGQAPRALIYSTSNKHSWTPARFSGSLLGGKAALTLSGVQPEDEAEYYCLLYYGGAQWVFGGGTKLTVLG
B5: PSA146/HLA-A*02:01-specific scFv phage clone #12 (scFv, V domains shown)
VH: QMQLVQSGSEVKKPGASVKVSCKASGYTFTSYGISWVRQAPGQGLEWMGWISAYNGNTDYVQKLQGRVTMTTDTSTNTAYMELGSLGSDDTAVYYCARTNYNKYDIWGQGTLVTVSS
VL: QSVLTQPPSVSGAPGQRVTISCTGSSSNIGAGYDVHWYQQLPGTAPKLLIYGNSNRPSGVPDRFSGSKSGTSASLAITGLQAEDEADYYCQSYDSSLSEVFGTGTKVTVLG

These binders were tested against T1, Bio-P19 member A2E-1 (chain 2: C-terminal BirA substrate peptide (BSP), enzymatically biotinylated; its letters are not printed in the patent and it is left out) (assay: phage ELISA, streptavidin plate, anti-M13-HRP).
T1 construct: also called biotinylated control peptide A2E-1/HLA-A*02:01 monomer
Description: (§1) Individual phage clones from enriched phage display panning pools against PSA146/HLA-A*02:01 complex were incubated in the coated plates. Binding of the phage clones was detected by HRP-conjugated anti-M13 antibodies and developed using HRP substrate. The absorbance was read at 450 nm. […] Then, unique antibody clones were identified through DNA sequencing of ELISA-positive clones. […] T2 cells loaded with different peptides and β2M were first stained with purified scFv phage clones, followed by staining with a mouse anti-M13 mAb, and finally R-PE conjugated horse anti-mouse IgG from Vector Labs. Each step of the staining was performed for between 30-60 minutes on ice and the cells were washed twice between stainings. All 16 clones recognized PSA146-loaded T2 cells specifically. FIG. 3 provides examples of PSA146/HLA-A*02:01 specific phage clone binding to peptide-loaded T2 cells through FACS.

Row | Binder | binding result
1 | B1 | no binding
2 | B2 | no binding
3 | B3 | no binding
4 | B4 | no binding
5 | B5 | no binding

What follows are binders tested against T2, Bio-P19 member A2E-10 (chain 2: C-terminal BirA substrate peptide (BSP), enzymatically biotinylated; its letters are not printed in the patent and it is left out) (assay: phage ELISA, streptavidin plate, anti-M13-HRP).
T2 construct: also called biotinylated control peptide A2E-10/HLA-A*02:01 monomer
Description: as §1

Row | Binder | binding result
6 | B1 | no binding
7 | B2 | no binding
8 | B3 | no binding
9 | B4 | no binding
10 | B5 | no binding

What follows are binders tested against T3, Bio-P19 member A2E-11 (chain 2: C-terminal BirA substrate peptide (BSP), enzymatically biotinylated; its letters are not printed in the patent and it is left out) (assay: phage ELISA, streptavidin plate, anti-M13-HRP).
T3 construct: also called biotinylated control peptide A2E-11/HLA-A*02:01 monomer
Description: as §1

Row | Binder | binding result
11 | B1 | no binding
12 | B2 | no binding
13 | B3 | no binding
14 | B4 | no binding
15 | B5 | no binding

These binders were tested against T4, Bio-P19 member A2E-13 (chain 2: C-terminal BirA substrate peptide (BSP), enzymatically biotinylated; its letters are not printed in the patent and it is left out) (assay: phage ELISA, streptavidin plate, anti-M13-HRP).
T4 construct: also called biotinylated control peptide A2E-13/HLA-A*02:01 monomer
Description: as §1

Row | Binder | binding result
16 | B1 | no binding
17 | B2 | no binding
18 | B3 | no binding
19 | B4 | no binding
20 | B5 | no binding

The binders below were run against T5, Bio-P19 member A2E-14 (chain 2: C-terminal BirA substrate peptide (BSP), enzymatically biotinylated; its letters are not printed in the patent and it is left out) (assay: phage ELISA, streptavidin plate, anti-M13-HRP).
T5 construct: also called biotinylated control peptide A2E-14/HLA-A*02:01 monomer
Description: as §1

Row | Binder | binding result
21 | B1 | no binding
22 | B2 | no binding
23 | B3 | no binding
24 | B4 | no binding
25 | B5 | no binding

These binders were tested against T6, Bio-P19 member A2E-15 (chain 2: C-terminal BirA substrate peptide (BSP), enzymatically biotinylated; its letters are not printed in the patent and it is left out) (assay: phage ELISA, streptavidin plate, anti-M13-HRP).
T6 construct: also called biotinylated control peptide A2E-15/HLA-A*02:01 monomer
Description: as §1

Row | Binder | binding result
26 | B1 | no binding
27 | B2 | no binding
28 | B3 | no binding
29 | B4 | no binding
30 | B5 | no binding

Each binder was assayed against T7, Bio-P19 member A2E-16 (chain 2: C-terminal BirA substrate peptide (BSP), enzymatically biotinylated; its letters are not printed in the patent and it is left out) (assay: phage ELISA, streptavidin plate, anti-M13-HRP).
T7 construct: also called biotinylated control peptide A2E-16/HLA-A*02:01 monomer
Description: as §1

Row | Binder | binding result
31 | B1 | no binding
32 | B2 | no binding
33 | B3 | no binding
34 | B4 | no binding
35 | B5 | no binding

What follows are binders tested against T8, Bio-P19 member A2E-17 (chain 2: C-terminal BirA substrate peptide (BSP), enzymatically biotinylated; its letters are not printed in the patent and it is left out) (assay: phage ELISA, streptavidin plate, anti-M13-HRP).
T8 construct: also called biotinylated control peptide A2E-17/HLA-A*02:01 monomer
Description: as §1

Row | Binder | binding result
36 | B1 | no binding
37 | B2 | no binding
38 | B3 | no binding
39 | B4 | no binding
40 | B5 | no binding

The binders below were run against T9, Bio-P19 member A2E-19 (chain 2 carries a C-terminal BirA substrate peptide (BSP), enzymatically biotinylated; the BSP letters are not given in the patent and are left out) (assay: phage ELISA, streptavidin plate, anti-M13-HRP).
T9 construct: also called biotinylated control peptide A2E-19/HLA-A*02:01 monomer
Description: as §1

Row | Binder | binding result
41 | B1 | no binding
42 | B2 | no binding
43 | B3 | no binding
44 | B4 | no binding
45 | B5 | no binding

What follows are binders tested against T10, Bio-P19 member A2E-21 (chain 2 carries a C-terminal BirA substrate peptide (BSP), enzymatically biotinylated; the BSP letters are not given in the patent and are left out) (assay: phage ELISA, streptavidin plate, anti-M13-HRP).
T10 construct: also called biotinylated control peptide A2E-21/HLA-A*02:01 monomer
Description: as §1

Row | Binder | binding result
46 | B1 | no binding
47 | B2 | no binding
48 | B3 | no binding
49 | B4 | no binding
50 | B5 | no binding

Each binder was assayed against T11, Bio-P19 member A2E-4 (chain 2 carries a C-terminal BirA substrate peptide (BSP), enzymatically biotinylated; the BSP letters are not given in the patent and are left out) (assay: phage ELISA, streptavidin plate, anti-M13-HRP).
T11 construct: also called biotinylated control peptide A2E-4/HLA-A*02:01 monomer
Description: as §1

Row | Binder | binding result
51 | B1 | no binding
52 | B2 | no binding
53 | B3 | no binding
54 | B4 | no binding
55 | B5 | no binding

Each binder was assayed against T12, Bio-P19 member A2E-5 (chain 2 carries a C-terminal BirA substrate peptide (BSP), enzymatically biotinylated; the BSP letters are not given in the patent and are left out) (assay: phage ELISA, streptavidin plate, anti-M13-HRP).
T12 construct: also called biotinylated control peptide A2E-5/HLA-A*02:01 monomer
Description: as §1

Row | Binder | binding result
56 | B1 | no binding
57 | B2 | no binding
58 | B3 | no binding
59 | B4 | no binding
60 | B5 | no binding

These binders were tested against T13, Bio-P19 member A2E-6 (chain 2 carries a C-terminal BirA substrate peptide (BSP), enzymatically biotinylated; the BSP letters are not given in the patent and are left out) (assay: phage ELISA, streptavidin plate, anti-M13-HRP).
T13 construct: also called biotinylated control peptide A2E-6/HLA-A*02:01 monomer
Description: as §1

Row | Binder | binding result
61 | B1 | no binding
62 | B2 | no binding
63 | B3 | no binding
64 | B4 | no binding
65 | B5 | no binding

These binders were tested against T14, Bio-P19 member A2E-7 (chain 2 (heavy): C-terminal BirA substrate peptide, biotinylated there by BirA; tag letters not given, left out) (assay: phage ELISA, streptavidin plate, anti-M13-HRP).
T14 construct: also called biotinylated control peptide A2E-7/HLA-A*02:01 monomer; not shown: BirA substrate peptide (BSP) tag at the C-terminus of the heavy chain
Description: as §1

Row | Binder | binding result
66 | B1 | no binding
67 | B2 | no binding
68 | B3 | no binding
69 | B4 | no binding
70 | B5 | no binding

The binders below were run against T15, Bio-P19 member A2E-8 (chain 2 (heavy): C-terminal BirA substrate peptide, biotinylated there by BirA; tag letters not given, left out) (assay: phage ELISA, streptavidin plate, anti-M13-HRP).
T15 construct: also called biotinylated control peptide A2E-8/HLA-A*02:01 monomer; not shown: BirA substrate peptide (BSP) tag at the C-terminus of the heavy chain
Description: as §1

Row | Binder | binding result
71 | B1 | no binding
72 | B2 | no binding
73 | B3 | no binding
74 | B4 | no binding
75 | B5 | no binding

These binders were tested against T16, Bio-P19 member A2E-9 (chain 2 (heavy): C-terminal BirA substrate peptide, biotinylated there by BirA; tag letters not given, left out) (assay: phage ELISA, streptavidin plate, anti-M13-HRP).
T16 construct: also called biotinylated control peptide A2E-9/HLA-A*02:01 monomer; not shown: BirA substrate peptide (BSP) tag at the C-terminus of the heavy chain
Description: as §1

Row | Binder | binding result
76 | B1 | no binding
77 | B2 | no binding
78 | B3 | no binding
79 | B4 | no binding
80 | B5 | no binding

These binders were tested against T17, HLA-A*02:01 on T2 cells with no peptide loaded (human) (assay: flow cytometry, phage on T2 cells, anti-M13 + R-PE anti-mouse IgG).
T17 construct: TAP-deficient T2 cells, no peptide loaded from outside; also called T2 cells without peptide loading
Description: as §1

Row | Binder | binding result
81 | B1 | no binding
82 | B2 | no binding
83 | B3 | no binding
84 | B4 | no binding
85 | B5 | no binding
